Each block holds one molecule with its values, some of them ahead of it.
T1: MBP-BIN2 (Arabidopsis, UniProt Q39011 1-380)
T1 construct: BIN2, Arabidopsis, At4g18710; source: E. coli, purified
T1 sequence (looked up): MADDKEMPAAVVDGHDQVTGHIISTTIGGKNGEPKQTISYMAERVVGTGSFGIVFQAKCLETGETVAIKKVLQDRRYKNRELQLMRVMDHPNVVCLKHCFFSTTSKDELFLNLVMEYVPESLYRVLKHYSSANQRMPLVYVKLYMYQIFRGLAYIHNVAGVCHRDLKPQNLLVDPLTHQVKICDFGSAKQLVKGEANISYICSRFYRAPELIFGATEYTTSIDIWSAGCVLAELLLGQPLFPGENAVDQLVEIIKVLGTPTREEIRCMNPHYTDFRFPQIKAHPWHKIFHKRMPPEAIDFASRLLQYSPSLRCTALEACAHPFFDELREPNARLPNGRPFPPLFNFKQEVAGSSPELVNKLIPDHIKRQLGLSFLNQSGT

B1: GST-PRE3 (natural protein, Arabidopsis, UniProt Q9CA64 1-93, looked up)
chain: MSGRRSRSRQSSGTSRISEDQINDLIIKLQQLLPELRDSRRSDKVSAARVLQDTCNYIRNLHREVDDLSERLSELLANSDTAQAALIRSLLTQ
notes: PRE3, Arabidopsis, At1g74500; source: E. coli, purified
B2: GST-PRE2 (natural protein, Arabidopsis, UniProt Q9LXG5 1-94, looked up)
chain: MSSSRRSRQASSSSRISDDQITDLISKLRQSIPEIRQNRRSNTVSASKVLQETCNYIRNLNKEADDLSDRLTQLLESIDPNSPQAAVIRSLING
notes: PRE2, Arabidopsis, At5g15160; source: E. coli, purified
B3: His-SUMO-UPB1 (natural protein, Arabidopsis, UniProt O22901 1-102, looked up)
chain: MGVTLEGQRKESIWVLMRRQRARRALVKKIMIRPRKSVEASRRPCRAIHRRVKTLKELVPNTKTSEGLDGLFRQTADYILALEMKVKVMQTMVQVLTETNCV
notes: UPB1, Arabidopsis, At2g47270; The phosphorylation methods speak of a 6x His tag; source: E. coli, purified

Tests used:
[1] = target: PRE3 (UniProt Q9CA64); test: anti-HA co-IP, anti-GFP blot; conditions: reference: wild type UPB1; sites S37,S41
[2] = target: PRE2 (UniProt Q9LXG5); test: anti-HA co-IP, anti-GFP blot; conditions: reference: wild type UPB1; sites S37,S41
[3] = target: B3; test: pull-down; His pull-down: about 30 ug His-SUMO-UPB1 with 30 ug MBP-BIN2, GST-PRE2 or GST-PRE3 in 400 ul 20 mM Tris-HCl pH 8.0, 150 mM NaCl, 0.2% Triton; about 3 h at 4 C; blots with anti-His, anti-MBP, anti-GST; conditions: both partners purified
[4] = target: T1, MBP-BIN2; test: as above; conditions: both partners purified

binding against the reference [1]: stronger
binding against the reference [2]: stronger
Molecule: UPB1 (UPBEAT1) (from UniProt O22901) UPB1 S37A S41A

Molecule: B1
binding result [3]: binds

Molecule: B2
binding result [3]: binds

Molecule: B3
binding result [4]: binds
